Test results taken from publication PMC10641069, “Intra- and inter-molecular regulation by intrinsically-disordered regions governs PUF protein RNA binding” (Nature Communications, 2023).
Substitutions are numbered along the chain they refer to.

Legend:
[1] = molecular target: T1, FBF-2 RBD+CT (Caenorhabditis elegans, UniProt Q09312 164-632); assay: EMSA; no LST-1; EMSA: FBF-2 in 20 mM HEPES pH 7.4, 150 mM NaCl, 0.5 mM TCEP mixed 1:1 with 5 nM final RNA in 10 mM HEPES pH 7.4, 0.01% Tween 20, 0.1 mg/ml BSA, 0.1 mg/ml yeast; settings: protein: recombinant; tags: none (His6-SUMO removed with Ulp1); label: 3'-Cy5
T1 sequence: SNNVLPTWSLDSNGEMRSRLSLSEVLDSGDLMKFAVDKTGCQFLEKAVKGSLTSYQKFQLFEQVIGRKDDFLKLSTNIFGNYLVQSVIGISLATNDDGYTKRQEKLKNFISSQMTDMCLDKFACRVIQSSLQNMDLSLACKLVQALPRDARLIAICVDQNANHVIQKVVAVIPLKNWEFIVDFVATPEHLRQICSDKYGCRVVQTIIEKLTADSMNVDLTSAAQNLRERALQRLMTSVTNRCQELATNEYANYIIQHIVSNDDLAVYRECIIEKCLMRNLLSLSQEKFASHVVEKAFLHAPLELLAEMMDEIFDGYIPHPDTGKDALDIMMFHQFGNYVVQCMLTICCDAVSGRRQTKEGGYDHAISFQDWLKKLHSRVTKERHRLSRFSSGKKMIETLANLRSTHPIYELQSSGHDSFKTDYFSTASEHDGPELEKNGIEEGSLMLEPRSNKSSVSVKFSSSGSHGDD

[2] = molecular target: T2, FBF-2 RBD (Caenorhabditis elegans, UniProt Q09312 164-575); assay: as above; settings: protein: recombinant; tags: none (His6-SUMO removed with TEV protease); label: 3'-Cy5
T2 sequence: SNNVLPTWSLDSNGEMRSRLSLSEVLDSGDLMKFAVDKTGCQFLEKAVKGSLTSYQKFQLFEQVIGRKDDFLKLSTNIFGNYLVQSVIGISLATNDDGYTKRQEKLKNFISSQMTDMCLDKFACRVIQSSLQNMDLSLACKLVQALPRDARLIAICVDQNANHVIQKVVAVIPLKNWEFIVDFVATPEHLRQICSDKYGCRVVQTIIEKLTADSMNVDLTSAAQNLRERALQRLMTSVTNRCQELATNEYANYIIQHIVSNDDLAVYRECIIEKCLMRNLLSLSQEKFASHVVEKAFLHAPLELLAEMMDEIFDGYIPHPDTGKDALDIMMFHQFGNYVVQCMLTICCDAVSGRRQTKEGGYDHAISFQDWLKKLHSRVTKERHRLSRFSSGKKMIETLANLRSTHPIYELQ

[3] = molecular target: T3, FBF-2 RBD+CT Loop6A (Caenorhabditis elegans, UniProt Q09312 164-632, E592A;D594A;E597A;E599A;E604A;E605A); assay: as above; settings: protein: recombinant; tags: none (His6-SUMO removed with Ulp1); label: 3'-Cy5
T3 sequence: T1 sequence with E429A, D431A, E434A, E436A, E441A, E442A

[4] = molecular target: T4, FBF-2 RBD+CT L610A (Caenorhabditis elegans, UniProt Q09312 164-632, L610A); assay: as above; settings: protein: recombinant; tags: none (His6-SUMO removed with Ulp1); label: 3'-Cy5
T4 sequence: T1 sequence with L447A

[5] = molecular target: T5, FBF-2 RBD+CT;LST-1 A peptide (Caenorhabditis elegans;Caenorhabditis …, UniProt Q09312;P91820 164-632;19-50, |); assay: EMSA; 150 uM LST-1 A; EMSA: FBF-2 in 20 mM HEPES pH 7.4, 150 mM NaCl, 0.5 mM TCEP mixed 1:1 with 5 nM final RNA in 10 mM HEPES pH 7.4, 0.01% Tween 20, 0.1 mg/ml BSA, 0.1 mg/ml yeast; settings: protein: recombinant;recombinant; tags: none (His6-SUMO removed with Ulp1);none (His6-SUMO removed with Ulp1); copies: 1;1; label: 3'-Cy5
T5 sequence 1: T1 sequence
T5 sequence 2: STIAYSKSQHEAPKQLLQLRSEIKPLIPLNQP

With AUCAUGUGCCAUAC (ssRNA) [gld-1 FBEa RNA (EMSA)] the Kd [1] was 334 ± 61 nM, the Kd [2] was 70 ± 23 nM and the Kd [3] was 101 ± 21 nM. For the same binder, the Kd [4] was 51 ± 26 nM and the Kd [5] was 114 ± 10 nM.
